B1: Isoform 2 of Glycogen synthase kinase-3 (protein)
chain: MSGRPRTTSFAESCKPVQQPSAFGSMKVSRDKDGSKVTTVVATPGQGPDRPQEVSYTDTKVIGNGSFGVVYQAKLCDSGELVAIKKVLQDKRFKNRELQIMRKLDHCNIVRLRYFFYSSGEKKDEVYLNLVLDYVPETVYRVARHYSRAKQTLPVIYVKLYMYQLFRSLAYIHSFGICHRDIKPQNLLLDPDTAVLKLCDFGSAKQLVRGEPNVSYICSRYYRAPELIFGATDYTSSIDVWSAGCVLAELLLGQPIFPGDSGVDQLVEIIKVLGTPTREQIREMNPNYTEFKFPQIKAHPWTKDSSGTGHFTSGVRVFRPRTPPEAIALCSRLLEYTPTARLTPLEACAHSFFDELRDPNVKLPNGRDTPALFNFTTQELSSNPPLATILIPPHARIQAAASTPTNATAASDANTGDRGQTNNAASASASNST
B2: Pregnancy zone protein (protein)
chain: TEPQYMVLVPSLLHTEAPKKGCVLLSHLNETVTVSASLESGRENRSLFTDLVAEKDLFHCVSFTLPRISASSEVAFLSIQIKGPTQDFRKRNTVLVLNTQSLVFVQTDKPMYKPGQTVRFRVVSVDENFRPRNELIPLIYLENPRRNRIAQWQSLKLEAGINQLSFPLSSEPIQGSYRVVVQTESGGRIQHPFTVEEFVLPKFEVKVQVPKIISIMDEKVNITVCGEYTYGKPVPGLATVSLCRKLSRVLNCDKQEVCEEFSQQLNSNGCITQQVHTKMLQITNTGFEMKLRVEARIREEGTDLEVTANRISEITNIVSKLKFVKVDSHFRQGIPFFAQVLLVDGKGVPIPNKLFFISVNDANYYSNATTNEQGLAQFSINTTSISVNKLFVRVFTVHPNLCFHYSWVAEDHQGAQHTANRVFSLSGSYIHLEPVAGTLPCGHTETITAHYTLNRQAMGELSELSFHYLIMAKGVIVRSGTHTLPVESGDMKGSFALSFPVESDVAPIARMFIFAILPDGEVVGDSEKFEIENCLANKVDLSFSPAQSPPASHAHLQVAAAPQSLCALRAVDQSVLLMKPEAELSVSSVYNLLTVKDLTNFPDNVDQQEEEQGHCPRPFFIHNGAIYVPLSSNEADIYSFLKGMGLKVFTNSKIRKPKSCSVIPSVSAGAVGQGYYGAGLGVVERPYVPQLGTYNVIPLNNEQSSGPVPETVRSYFPETWIWELVAVNSSGVAEVGVTVPDTITEWKAGAFCLSEDAGLGISSTASLRAFQPFFVELTMPYSVIRGEVFTLKATVLNYLPKCIRVSVQLKASPAFLASQNTKGEESYCICGNERQTLSWTVTPKTLGNVNFSVSAEAMQSLELCGNEVVEVPEIKRKDTVIKTLLVEAEGIEQEKTFSSMTCASGANVSEQLSLKLPSNVVKESARASFSVLGDILGSAMQNIQNLLQMPYGCGEQNMVLFAPNIYVLNYLNETQQLTQEIKAKAVGYLITGYQRQLNYKHQDGSYSTFGERYGRNQGNTWLTAFVLKTFAQARSYIFIDEAHITQSLTWLSQMQKDNGCFRSSGSLLNNAIKGGVEDEATLSAYVTIALLEIPLPVTNPIVRNALFCLESAWNVAKEGTHGSHVYTKALLAYAFSLLGKQNQNREILNSLDKEAVKEDNLVHWERPQRPKAPVGHLYQTQAPSAEVEMTSYVLLAYLTAQPAPTSGDLTSATNIVKWIMKQQNAQGGFSSTQDTVVALHALSRYGAATFTRTEKTAQVTVQDSQTFSTNFQVDNNNLLLLQQISLPELPGEYVITVTGERCVYLQTSMKYNILPEKEDSPFALKVQTVPQTCDGHKAHTSFQISLTISYTGNRPASNMVIVDVKMVSGFIPLKPTVKMLERSSSVSRTEVSNNHVLIYVEQVTNQTLSFSFMVLQDIPVGDLKPAIVKVYDYYETDESVVAEYIAPCSTDTEHGNV
B3: Protein-glutamine gamma-glutamyltransferase E (protein)
chain: AALGVQSINWQTAFNRQAHHTDKFSSQELILRRGQNFQVLMIMNKGLGSNERLEFIVSTGPYPSESAMTKAVFPLSNGSSGGWSAVLQASNGNTLTISISSPASAPIGRYTMALQIFSQGGISSVKLGTFILLFNPWLNVDSVFMGNHAEREEYVQEDAGIIFVGSTNRIGMIGWNFGQFEEDILSICLSILDRSLNFRRDAATDVASRNDPKYVGRVLSAMINSNDDNGVLAGNWSGTYTGGRDPRSWNGSVEILKNWKKSGFSPVRYGQCWVFAGTLNTALRSLGIPSRVITNFNSAHDTDRNLSVDVYYDPMGNPLDKGSDSVWNFHVWNEGWFVRSDLGPSYGGWQVLDATPQERSQGVFQCGPASVIGVREGDVQLNFDMPFIFAEVNADRITWLYDNTTGKQWKNSVNSHTIGRYISTKAVGSNARMDVTDKYKYPEGSDQERQVFQKALGKLKPNTPFAATSSMGLETEEQEPSIIGKLKVAGMLAVGKEVNLVLLLKNLSRDTKTVTVNMTAWTIIYNGTLVHEVWKDSATMSLDPEEEAEHPIKISYAQYEKYLKSDNMIRITAVCKVPDESEVVVERDIILDNPTLTLEVLNEARVRKPVNVQMLFSNPLDEPVRDCVLMVEGSGLLLGNLKIDVPTLGPKEGSRVRFDILPSRSGTKQLLADFSCNKFPAIKAMLSIDVAE
B4: Isoform B of Fibulin-1 (protein)
chain: DVLLEACCADGHRMATHQKDCSLPYATESKECRMVQEQCCHSQLEELHCATGISLANEQDRCATPHGDNASLEATFVKRCCHCCLLGRAAQAQGQSCEYSLMVGYQCGQVFQACCVKSQETGDLDVGGLQETDKIIEVEEEQEDPYLNDRCRGGGPCKQQCRDTGDEVVCSCFVGYQLLSDGVSCEDVNECITGSHSCRLGESCINTVGSFRCQRDSSCGTGYELTEDNSCKDIDECESGIHNCLPDFICQNTLGSFRCRPKLQCKSGFIQDALGNCIDINECLSISAPCPIGHTCINTEGSYTCQKNVPNCGRGYHLNEEGTRCVDVDECAPPAEPCGKGHRCVNSPGSFRCECKTGYYFDGISRMCVDVNECQRYPGRLCGHKCENTLGSYLCSCSVGFRLSVDGRSCEDINECSSSPCSQECANVYGSYQCYCRRGYQLSDVDGVTCEDIDECALPTGGHICSYRCINIPGSFQCSCPSSGYRLAPNGRNCQDIDECVTGIHNCSINETCFNIQGGFRCLAFECPENYRRSAATQKSKKGRQNTPAGSSKEDCRVLPWKQGLEDTHLDA
B5: Protein S100-A7 (protein)
chain: SNTQAERSIIGMIDMFHKYTRRDDKIEKPSLLTMMKENFPNFLSACDKKGTNYLADVFEKKDKNEDKKIDFSEFLSLLGDIATDYHKQSHGAAPCSGGSQ
B6: Isoform C of Fibulin-1 (protein)
chain: DVLLEACCADGHRMATHQKDCSLPYATESKECRMVQEQCCHSQLEELHCATGISLANEQDRCATPHGDNASLEATFVKRCCHCCLLGRAAQAQGQSCEYSLMVGYQCGQVFQACCVKSQETGDLDVGGLQETDKIIEVEEEQEDPYLNDRCRGGGPCKQQCRDTGDEVVCSCFVGYQLLSDGVSCEDVNECITGSHSCRLGESCINTVGSFRCQRDSSCGTGYELTEDNSCKDIDECESGIHNCLPDFICQNTLGSFRCRPKLQCKSGFIQDALGNCIDINECLSISAPCPIGHTCINTEGSYTCQKNVPNCGRGYHLNEEGTRCVDVDECAPPAEPCGKGHRCVNSPGSFRCECKTGYYFDGISRMCVDVNECQRYPGRLCGHKCENTLGSYLCSCSVGFRLSVDGRSCEDINECSSSPCSQECANVYGSYQCYCRRGYQLSDVDGVTCEDIDECALPTGGHICSYRCINIPGSFQCSCPSSGYRLAPNGRNCQDIDECVTGIHNCSINETCFNIQGGFRCLAFECPENYRRSAATRCERLPCHENRECSKLPLRITYYHLSFPTNIQAPAVVFRMGPSSAVPGDSMQLAITGGNEEGFFTTRKVSPHSGVVALTKPVPEPRDLLLTVKMDLSRHGTVSSFVAKLFIFVSAEL

System: Low density cholesterol (Chl small) plaque particles
Assay: Mass spectroscopy proteomics, semi-quantitative binding affinity of serum proteins (plaqueproteome, Table 2)
Design: species or system human
Details: higher number = stronger affinity
In short: (§1)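 Read-out is MS/MS protein identification (Sequest, strict trypsin, 20 ppm parent tolerance; Scaffold probabilities) of serum proteins bound to flow-sorted cholesterol plaque particles. These particles formed when 50% atherosclerotic serum was incubated with 30 μg cholesterol aggregates for 1 hr at 37° C.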

Molecule	Semi-quantitative analysis of proteins binding to different plaque particles: Chl small
B1	0
B2	2
B3	0
B4	3
B5	0
B6	2

System: High Density cholesterol (Chl Large) plaque particles
Assay: as above
Design: species or system human
Details: higher number = stronger affinity
In short: as §1

Molecule	Semi-quantitative analysis of proteins binding to different plaque particles: Chl Large
B1	0
B2	0
B3	0
B4	3
B5	0
B6	1

Biological target: T1, Abeta-42 plaque particles (Homo sapiens, UniProt P05067)
T1 construct: Abeta 1-42
Assay: as above
Details: higher number = stronger affinity
In short: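 AD patient serum or plasma (50% in PBS) was incubated with Abeta-42 aggregates (30 μg) for 1 h at 37 °C, then stained with Thioflavin S for 30 min. Labeled particles were FACS-sorted, trypsin/Lys-C digested overnight and analyzed by MS/MS. Sequest searched human UniProt; Scaffold/Protein Prophet validated the identifications.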

Molecule	Semi-quantitative analysis of proteins binding to different plaque particles: Abeta-42
B1	4
B2	4
B3	2
B4	0
B5	2
B6	0

Biological target: T2, alpha-synuclein plaque particles (Homo sapiens, UniProt P37840)
T2 construct: 140 amino acids polypeptide
Assay: as above
Details: higher number = stronger affinity
In short: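 AD-subject plasma or serum (800 μL of 50%) mixed with 30 μg preformed alpha-synuclein aggregates for 1 h at 37 °C; Thioflavin S-positive particles isolated by flow sorting. After reduction, acrylamide alkylation and overnight tryptic digestion, serum proteins identified by MS/MS with Sequest and Scaffold.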

Molecule	Semi-quantitative analysis of proteins binding to different plaque particles: Synuclein
B1	0
B2	0
B3	0
B4	1
B5	0
B6	1

System: Tau plaque particles
Assay: as above
Design: species or system human
Details: higher number = stronger affinity
In short: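 Synthetic Tau-74 and Tau-275 peptides (1 mg/mL PBS, 37° C, 2 h) aggregated; 30 μg aggregates incubated with 50% serum/plasma 1 h at 37° C, stained with Thioflavin S, and plaque particles sorted by flow cytometry. Bound proteins trypsin-digested and identified by MS/MS against human UniProt.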

Molecule	Semi-quantitative analysis of proteins binding to different plaque particles: Tau
B1	0
B2	0
B3	0
B4	0
B5	0
B6	0

Reference: US9618524B2, “Method, composition, isolation and identification of a plaque particle and related biomarker” (Plaxgen Inc., priority 2012, dated 2017)
